Test results as given in article PMC7530888 (Nucleic Acids Research, 2020).

Tests used:
Assay in all cases: SPR
MtbLigA^G614I = MtbLigA^G614I (M. tuberculosis, UniProt P9WNV1 1-691, G614I)
MtbLigA^G639V = MtbLigA^G639V (M. tuberculosis, UniProt P9WNV1 1-691, G639V)
MtbLigA^G621I = MtbLigA^G621I (M. tuberculosis, UniProt P9WNV1 1-691, G621I)
[1] = target: Full-length His-tagged MtbLigA (M. tuberculosis, UniProt P9WNV1 1-691)

Binder | Kd (MtbLigA^G614I) | Kd (MtbLigA^G639V) | Kd (MtbLigA^G621I) | Kd [1]
GST-tagged MtbXthA (enzyme) MPDGTIDGGHPQRPASPRLRSPLLRLATWNVNSIRTRLDRVLDWLGRADVDVLAMQETKCPDGQFPALPLFELGYDVAHVGFDQWNGVAIASRVGLDDVRVGFDGQPSWSGKPEVAATTEARALGATCGGIRVWSLYVPNGRALDDPHYTYKLDWLAALRDTAEGWLRDDPAAPIALMGDWNIAPTDDDVWSTEFFAGCTHVSEPERKAFNAIVDAQFTDVVRPFTPGPGVYTYWDYTQLRFPKKQGMRIDFILGSPALAARVMDAQIVREERKGKAPSDHAPVLVDLHAG | 781 nM | 2770 nM | 154 nM | 
GST-tagged MtbXthA^ID (interaction-defective triple mutant) (enzyme) MPDGTIDGGHPQRPASPRLRSPLLRLATWNVNSIRTRLDRVLDWLGRADVDVLAMQETKCPDGQFPALPLFELGYDVAHVGFDQWNGVAIASRVGLDDVRVGFDGQPSWALAPEVAATTEARALGATCGGIRVWSLYVPNGRALDDPHYTYKLDWLAALRDTAEGWLRDDPAAPIALMGDWNIAPTDDDVWSTEFFAGCTHVSEPERKAFNAIVDAQFTDVVRPFTPGPGVYTYWDYTQLRFPKKQGMRIDFILGSPALAARVMDAQIVREERKGKAPSDHAPVLVDLHAG |  | 9010 nM |  | 613 nM
